The test system of the experiment is Arabidopsis thaliana T1 plants. Nature of the experiment: Topramezone tolerance of transgenic Arabidopsis thaliana T1 plants (pesticide damage grade by bleached leaf area, score, resistance evaluation). The experiment is classed as in vivo. Conditions: HPPD F372V mutants, Table 7. Summed up: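 Herbicide tolerance was judged per plant on a bleaching scale (grade 0 no bleaching to grade 3 fully bleached) 7 DAT. Topramezone doses were 0, 25, 50 and 100 g ai/ha on 18-day-old T1 and wild-type plants.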

B1: CaHPPDm-F372V: Cicer arietinum HPPD mutant F372V, SEQ ID NO: 367 (protein)
chain: MGTIETQTGFKLVGFNNFVRTNPKSDRFKVKRFHHVEFWCPDATNTARRFSWGLGMPIVAKSDLSTGNQTHASYLLRSGDLNFLFTAAYSPSISLSAPHPTASIPSFSAPTSFAFSASHGLGVRAVAIEVDDAEFAYTTSVNHGAIPSSPPVVLDNRVKLAEVQLYGDVVLRYVSYNDPIETSNPNPNHWFLPGFEPVEETSSNQSIDFGIQRLDHAVGNVPELSSALNYVKQFTGFHEFAEFTAEDVGTSESGLNSTVLANNEETVLLPMNEPVYGTKRKSQIQTYLEHNEGAGLQHLALMSNDIFKTLREMRKRSGIGGFEFMPSPPPTYYSNLKKRVGDVLNDEQIKECEELGILVDKDDQGTLLQIVTKPVGDRPTIFIEIIQRVGCMLKDDEGKEYQKGGCGGFGKGNFSELFKSIEEYEKTLEIKRTA
modifications: CaHPPDm-F372V Amino Acid Sequence
On to B1, for which the Resistance evaluation entry by setting is: (topramezone 25 g ai/ha (1x)) “Poorly resistant”; (topramezone 100 g ai/ha (4x)) “Non-resistant”.

B2: HaHPPDm-F372V: Helianthus annuus HPPD mutant F372V, SEQ ID NO: 371 (protein)
chain: MGTEATVAAVVAGDESDHPTSAFKLVGFKNFIRTNPMSDKFTVKNFHHIEFWCSDATNTARRFSWGLGMPIIFKSDLSTGNSTHASYLLRSGHLNFLFTAPYSPSISPTTTTASIPTFSHSASRHFTATHGLAVRAIAVEVEDAETAFAVSVANGAKPSSPPVTLGHNDVVLSEVKLYGDVVLRYVSYKNNTNNNNNNDNDNYIFLPGFEAMDKTSSFQELDYGIRRLDHAVGNVPELAPAVDYVKSFTGFHEFAEFTAEDVGTSESGLNSVVLACNSEMVLIPMNEPVYGTKRKSQIQTYLEHNEGAGVQHLALASEDIFRTLREMRKRSGVGGFEFMPSPPPTYYRNLKSRAGDVLSDEQIKECEELGILVDRDDQGTLLQIVTKPVGDRPTIFIEIIQRVGCMVKDDEGKVQQKAGCGGFGKGNFSELFKSIEEYEKTLEARSTTAA
modifications: HaHPPDm-F372V Amino Acid Sequence
As for B2, the Resistance evaluation entry was “Poorly resistant” (topramezone 25 g ai/ha (1x)) and “Non-resistant” (topramezone 100 g ai/ha (4x)).

B3: SbHPPDm-F372V: Sorghum bicolor HPPD mutant F372V, SEQ ID NO: 361 (protein)
chain: MPPTPTTAAATGAAVAAASAEQAAFRLVGHRNFVRVNPRSDRFHTLAFHHVELWCADAASAAGRFSFGLGAPLAARSDLSTGNTAHASLLLRSGALAFLFTAPYAHGADAATASLPSFSAAEARRFAADHGLAVRAVALRVADAEDAFRASVAAGARPAFEPVELGLGFRLAEVELYGDVVLRYVSYPDDADASFLPGFVGVTSPGAADYGLRRFDHIVGNVPELAPAAAYFAGFTGFHEFAEFTAEDVGTTESGLNSMVLANNAENVLLPLNEPVHGTKRRSQIQTYLDHHGGPGVQHMALASDDVLRTLREMQARSAMGGFEFMAPPAPEYYDGVRRRAGDVLTEAQIKECQELGVLVDRDDQGVLLQIVTKPVGDRPTLFLEIIQRIGCMEKDEKGQEYQKGGCGGFGKGNFSQLFKSIEDYEKSLEAKQAAAAQGS
modifications: SbHPPDm-F372V Amino Acid Sequence
As to B3, the Resistance evaluation result (topramezone 25 g ai/ha (1x)) is recorded as “Poorly resistant” and the Resistance evaluation entry (topramezone 100 g ai/ha (4x)) is “Non-resistant”.

B4: GmHPPDm-F372V: Glycine max HPPD mutant F372V, SEQ ID NO: 365 (protein)
chain: MPMYTPSLSAPSSNHIQPSVTLPLYITTTKLNLKQQHHTTPMPIPMCNEIQAQAQAQAQPGFKLVGFKNFVRTNPKSDRFQVNRFHHIEFWCTDATNASRRFSWGLGMPIVAKSDLSTGNQIHASYLLRSGDLSFLFSAPYSPSLSAGSSAASSASIPSFDAATCLAFAAKHGFGVRAIALEVADAEAAFSASVAKGAEPASPPVLVDDRTGFAEVRLYGDVVLRYVSYKDAAPQAPHADPSRWFLPGFEAAASSSSFPELDYGIRRLDHAVGNVPELAPAVRYLKGFSGFHEFAEFTAEDVGTSESGLNSVVLANNSETVLLPLNEPVYGTKRKSQIETYLEHNEGAGVQHLALVTHDIFTTLREMRKRSFLGGFEFMPSPPPTYYANLHNRAADVLTVDQIKQCEELGILVDRDDQGTLLQIVTKPVGDRPTIFIEIIQRIGCMVEDEEGKVYQKGACGGFGKGNFSELFKSIEEYEKTLEAKRTA
modifications: GmHPPDm-F372V Amino Acid Sequence
In the case of B4, the Resistance evaluation result reads like this: (topramezone 25 g ai/ha (1x)) “Poorly resistant”; (topramezone 100 g ai/ha (4x)) “Non-resistant”.

B5: MsHPPDm-F372V: Medicago sativa HPPD mutant F372V, SEQ ID NO: 373 (protein)
chain: MAIETETQTQTGFKLVGFKNFVRANPKSDRFKVKRFHHVEFWCTDATNTARRFSHGLGMPIVAKSDLSTGNQTHASYLLRSGDLNFLFSAAYSPSISLSSPSSTAAIPTFSASNCFSFSASHGLAVRAVAVEVEDAELAFTTSVNNGAIPSSPPVILENHVKLAEVRLYGDVVLRYVSYNDPNPNQNPNLLFLPGFERVSDESSNSSLDFGIRRLDHAVGNVPELSSAVKYVKDFTGFHEFAEFTAEDVGTSESGLNSVVLANNEETVLLPMNEPVYGTKRKSQIETYLEHNEGAGLQHLALKSEDIFRTLREMRKRSGVGGFEFMPSPPVTYYRNLKNRVGDVLSDEQIKECEELGILVDRDDQGTLLQIVTKPIGDRPTIFIEIIQRVGCMLKDEEGKEYQKGGCGGFGKGNFSELFKSIEEYEKTLETRRTA
modifications: MsHPPDm-F372V Amino Acid Sequence
Consider B5, for which the Resistance evaluation entry (topramezone 25 g ai/ha (1x)) is “Poorly resistant” and the Resistance evaluation result (topramezone 100 g ai/ha (4x)) is “Non-resistant”.

B6: OsHPPDm-F372V: Oryza sativa HPPD mutant F372V, SEQ ID NO: 363 (protein)
chain: MPPTPTPTATTGAVSAAAAAGENAGFRLVGHRRFVRANPRSDRFQALAFHHVELWCADAASAAGRFAFALGAPLAARSDLSTGNSAHASLLLRSASVAFLFTAPYGGDHGVGADAATTASIPSFSPGAARRFAADHGLAVHAVALRVADAADAFRASVAAGARPAFQPADLGGGFGLAEVELYGDVVLRFVSHPDGADAPFLPGFEGVSNPGAVDYGLRRFDHVVGNVPELAPVAAYISGFTGFHEFAEFTAEDVGTAESGLNSVVLANNAETVLLPLNEPVHGTKRRSQIQTYLDHHGGPGVQHIALASDDVLGTLREMRARSAMGGFEFLAPPPPNYYDGVRRRAGDVLSEEQINECQELGVLVDRDDQGVLLQIVTKPVGDRPTFFLEMIQRIGCMEKDESGQEYQKGGCGGFGKGNFSELFKSIEEYEKSLEAKQAPTVQGS
modifications: OsHPPDm-F372V Amino Acid Sequence
With B6, the Resistance evaluation entry reads like this: (topramezone 25 g ai/ha (1x)) “Moderately resistant”; (topramezone 100 g ai/ha (4x)) “Non-resistant”.

B7: BnHPPDm-F372V: Brassica napus HPPD mutant F372V, SEQ ID NO: 369 (protein)
chain: MGHENAAVCETQQHDDAASPGFKLVGFSKFVRKNPKSDKFKVKRFHHIEFWCGDATNVSRRFSWGLGMRFSAKSDLSTGNMVHASYLLTSGDLRFLFTAPYSPSLSAGEAQPSATASIPSFDHASCRSFFSSHGLGVRAVAIEVEDAESAFSISVANGAVPSSPPNVLNGAVTIAEVKLYGDVVLRYVSYYNGTVSFLPGFESVDDTSSFPLDYGIRRLDHAVGNVPELGPALTYLAGFTGFHQFAEFTADDVGTAESGLNSAVLANNDEMVLLPINEPVHGTKRKSQIQTFLEHNEGAGLQHLALMSEDIFRTLREMRKRSGVGGFDFMPSPPPTYYKNLKKRVGDVLSEEQIEECEELGILVDRDDQGTLLQIVTKPLGDRPTIFIEIIQRVGCMKRDEEGKVYQSGGCGGFGKGNFSELFKSIEEYEKTLEAKQLVG
modifications: BnHPPDm-F372V Amino Acid Sequence
B7: the Resistance evaluation result (topramezone 25 g ai/ha (1x)) was “Poorly resistant” and the Resistance evaluation entry (topramezone 100 g ai/ha (4x)) is “Non-resistant”.

B8: AtHPPDm-F372V: Arabidopsis thaliana HPPD mutant F372V, SEQ ID NO: 349 (protein)
chain: MGHQNAAVSENQNHDDGAASSPGFKLVGFSKFVRKNPKSDKFKVKRFHHIEFWCGDATNVARRFSWGLGMRFSAKSDLSTGNMVHASYLLTSGDLRFLFTAPYSPSLSAGEIKPTTTASIPSFDHGSCRSFFSSHGLGVRAVAIEVEDAESAFSISVANGAIPSSPPIVLNEAVTIAEVKLYGDVVLRYVSYKAEDTEKSEFLPGFERVEDASSFPLDYGIRRLDHAVGNVPELGPALTYVAGFTGFHQFAEFTADDVGTAESGLNSAVLASNDEMVLLPINEPVHGTKRKSQIQTYLEHNEGAGLQHLALMSEDIFRTLREMRKRSSIGGFDFMPSPPPTYYQNLKKRVGDVLSDDQIKECEELGILVDRDDQGTLLQIVTKPLGDRPTIFIEIIQRVGCMMKDEEGKAYQSGGCGGFGKGNFSELFKSIEEYEKTLEAKQLVG
modifications: AtHPPDm-F372V Amino Acid Sequence
As to B8, the Resistance evaluation entry is “Poorly resistant” (topramezone 25 g ai/ha (1x)) and “Non-resistant” (topramezone 100 g ai/ha (4x)).

B9: SiHPPDm-F372V: Setaria italica HPPD mutant F372V, SEQ ID NO: 359 (protein)
chain: MPPTPTPAAAAPGAAAAPAAGDQAAFRLVGHRGFVRVNPRSDRFHTLSFHHVELWCADATSAAGRFSFGLGAPLAARSDLSTGNSAHASLLLRSGSLAFLFTAPYAHGVDAATASLPSFSAPAARSFAADHGLAVRAIGLRVADAEDAFRASVAAGARPAFKPVELGLGFRLAEVELYGDVVLRYVSYPDAEDAPFLPGFENVNNPGALNYGLRRFDHIVGNVPELAPVAAYVAGFTGFHEFAEFTAEDVGTAESGLNSMVLANNSETVLIPLNEPVHGTKRRSQIQTFLDHNGGPGVQHIALASDDVLRTLREMQARSAMGGFEFMAAPPPDYYEGVRRRAGDVLSEAQIKECQELGVLVDRDDQGVLLQIVTKPVGDRQTLFLEIIQRIGCMEKDEQGQEYQKGGCGGFGKGNFSQLFKSIEDYEKSLESKQAAAVQGS
modifications: SiHPPDm-F372V Amino Acid Sequence
As to B9, the Resistance evaluation result runs as follows: (topramezone 25 g ai/ha (1x)) “Moderately resistant”; (topramezone 100 g ai/ha (4x)) “Poorly resistant”.

The record behind these values is patent US20230212587A1, “Mutant Hydroxyphenylpyruvate Dioxygenase Polypeptide, Encoding Gene Thereof and Use Therefor” (Beijing Dabeinong Biotechnology Co., Ltd., priority 2019, published 2023).
